Where a chain is given by its changes, count along the chain named. Names and notes keep the numbering of the source. Values joined by “and” are separate entries in the source; they are usually repeats but may differ in a detail not shown here. Equal values may be shown once.
T1: human IL-22RA on cells (HepG2 hepatoma cells, normal human keratinocytes, BaF3 cells transfected with human … (human, UniProt Q8N6P7 16-574))
T1 sequence: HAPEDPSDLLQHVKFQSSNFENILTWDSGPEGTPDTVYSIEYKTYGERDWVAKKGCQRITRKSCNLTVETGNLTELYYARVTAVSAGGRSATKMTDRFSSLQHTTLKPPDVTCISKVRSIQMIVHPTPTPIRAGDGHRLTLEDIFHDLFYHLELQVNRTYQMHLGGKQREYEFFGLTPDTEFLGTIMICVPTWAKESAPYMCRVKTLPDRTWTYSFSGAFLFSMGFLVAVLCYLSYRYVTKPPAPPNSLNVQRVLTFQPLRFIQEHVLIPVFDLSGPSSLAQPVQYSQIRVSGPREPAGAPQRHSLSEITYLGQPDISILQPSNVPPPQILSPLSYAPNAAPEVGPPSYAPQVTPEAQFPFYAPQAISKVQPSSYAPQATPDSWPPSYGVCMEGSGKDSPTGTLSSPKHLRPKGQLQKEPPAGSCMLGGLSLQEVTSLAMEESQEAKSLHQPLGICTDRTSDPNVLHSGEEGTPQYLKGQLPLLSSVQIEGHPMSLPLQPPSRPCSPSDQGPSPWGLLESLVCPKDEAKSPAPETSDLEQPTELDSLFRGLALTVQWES

T2: murine IL-22RA on cells (HEPA1-6 hepatoma cells, BaF3 cells transfected with murine IL-22RA and IL-10RB) (murine, UniProt Q80XZ4 16-581)
T2 sequence (looked up): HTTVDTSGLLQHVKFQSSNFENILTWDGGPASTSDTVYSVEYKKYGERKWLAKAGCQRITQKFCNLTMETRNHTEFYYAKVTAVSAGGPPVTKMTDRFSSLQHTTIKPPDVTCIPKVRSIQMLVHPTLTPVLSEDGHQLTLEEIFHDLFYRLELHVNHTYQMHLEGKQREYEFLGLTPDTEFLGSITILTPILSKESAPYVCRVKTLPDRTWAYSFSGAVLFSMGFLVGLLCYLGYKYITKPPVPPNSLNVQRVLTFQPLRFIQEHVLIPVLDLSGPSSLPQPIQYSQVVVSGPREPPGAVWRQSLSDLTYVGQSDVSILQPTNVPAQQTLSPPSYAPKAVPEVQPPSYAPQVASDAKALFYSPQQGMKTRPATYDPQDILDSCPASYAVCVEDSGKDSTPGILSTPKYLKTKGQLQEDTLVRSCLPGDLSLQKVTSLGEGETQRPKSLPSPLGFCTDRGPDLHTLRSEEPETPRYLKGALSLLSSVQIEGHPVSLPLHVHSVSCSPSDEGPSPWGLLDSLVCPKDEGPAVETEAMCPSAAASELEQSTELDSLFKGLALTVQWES

B1: human IL-22RA (recombinant, form not stated) (receptor)
chain: HAPEDPSDLLQHVKFQSSNFENILTWDSGPEGTPDTVYSIEYKTYGERDWVAKKGCQRITRKSCNLTVETGNLTELYYARVTAVSAGGRSATKMTDRFSSLQHTTLKPPDVTCISKVRSIQMIVHPTPTPIRAGDGHRLTLEDIFHDLFYHLELQVNRTYQMHLGGKQREYEFFGLTPDTEFLGTIMICVPTWAKESAPYMCRVKTLPDRTWT
notes: a soluble ECD is likely; also called hIL-22RA; human interleukin 22 receptor alpha
B2: murine IL-22RA (recombinant, form not stated) (receptor, UniProt Q80XZ4 16-230, looked up)
chain: HTTVDTSGLLQHVKFQSSNFENILTWDGGPASTSDTVYSVEYKKYGERKWLAKAGCQRITQKFCNLTMETRNHTEFYYAKVTAVSAGGPPVTKMTDRFSSLQHTTIKPPDVTCIPKVRSIQMLVHPTLTPVLSEDGHQLTLEEIFHDLFYRLELHVNHTYQMHLEGKQREYEFLGLTPDTEFLGSITILTPILSKESAPYVCRVKTLPDRTWAYS
notes: also called mIL-22RA; mouse IL-22 receptor alpha
B3: humanized 280.46.3.4 antibody comprising 280.VH3-66-1 paired with 280.VK4-1-S, human IgG1/kappa (antibody, V domains shown)
VH: EVQLVESGGGLVQPGGSLRLSCAASGYSLTADYMNWVRQAPGKGLEWIGEINPSTGTTTYNQKFEARATLTVDQSKNTAYLQMNSLRAEDTAVYYCARFDAYFDYWGQGTLVTVSS
VL: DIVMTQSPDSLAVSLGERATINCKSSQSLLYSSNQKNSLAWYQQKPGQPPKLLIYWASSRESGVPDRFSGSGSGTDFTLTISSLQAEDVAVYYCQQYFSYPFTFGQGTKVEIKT
B4: Fab of D96E mutant: 280.VH3-66-4 with Asp to Glu at position 96, paired with 280.VK4-1-T (Fab, name in Kabat numbering, V domains shown)
VH: B3 VH with E65K, A66G, T71S, D100E
VL: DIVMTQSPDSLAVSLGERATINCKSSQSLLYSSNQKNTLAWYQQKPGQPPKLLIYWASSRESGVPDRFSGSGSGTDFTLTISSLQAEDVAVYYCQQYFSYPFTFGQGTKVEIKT
notes: NiNTA-purified Fab, which implies a His tag that is not described
B5: humanized 280.46.3.4 antibody comprising 280.VH3-66-18 paired with 280.VK4-1-T, human IgG1/kappa (antibody, V domains shown)
VH: B3 VH with D32E, E65K, A66G, T71S
VL: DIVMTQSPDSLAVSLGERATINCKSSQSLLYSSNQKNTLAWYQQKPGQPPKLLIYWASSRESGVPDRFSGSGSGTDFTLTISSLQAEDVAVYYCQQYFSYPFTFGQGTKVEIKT
B6: humanized 280.46.3.4 antibody comprising 280.VH3-66-4 paired with 280.VK4-1-T, human IgG1/kappa (antibody, V domains shown)
VH: B3 VH with E65K, A66G, T71S
VL: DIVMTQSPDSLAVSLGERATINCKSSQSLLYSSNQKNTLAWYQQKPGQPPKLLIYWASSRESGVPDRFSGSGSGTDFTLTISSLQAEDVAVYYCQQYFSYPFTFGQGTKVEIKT
B7: Fab of D32E mutant: 280.VH3-66-18 paired with 280.VK4-1-T (Fab, V domains shown)
VH: B3 VH with D32E, E65K, A66G, T71S
VL: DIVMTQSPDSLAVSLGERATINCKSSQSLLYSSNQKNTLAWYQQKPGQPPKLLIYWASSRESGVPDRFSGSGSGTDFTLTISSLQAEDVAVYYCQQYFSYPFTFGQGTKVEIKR
notes: NiNTA-purified Fab, which implies a His tag that is not described; also called version 18
B8: mouse 280.46.3.4 (mouse anti-human IL-22RA monoclonal antibody from hybridoma 280.46.3.4, ATCC PTA-6284) (antibody, V domains shown)
VH: EVQLQQSGPELVRPGTSVKISCKASGYSLTADYMNWVKQSPEESLEWIGEINPSTGTTTYNQKFEAKATLTVDQSSNTAYLQLTSLTSEDSAVYYCARFDAYFDYWGQGTTVTVSS
VL: DIVMTQSPSSLAVSVGEKVTMSCKSSQSLLYSSNQKNCLAWYQQKPGQSPKLLIYWASSRESGVPDRFTGSGSGTDFTLTISSVKTEDLAVYYCQQYFSYPFTFGSGTKLEIKR

Key:
[1] = target: T3, 280.346.TSY (humanized anti-human IL-22RA antibody comprising 280.VH3-66-46 paired with 280.VK4-1-TSY, human …); assay: competitive ELISA: soluble competitor against coated human IL-22RA-ECD for biotinylated 280-346-TSY; soluble human IL-22RA as competitor
T3 construct: Produced in CHO cells; also called 280.VH3-66-46/VK4-1-TSY; 280.VH3-66.46 paired with 280.IGKV4-1-TSY
T3 sequence (VL, as listed by the source): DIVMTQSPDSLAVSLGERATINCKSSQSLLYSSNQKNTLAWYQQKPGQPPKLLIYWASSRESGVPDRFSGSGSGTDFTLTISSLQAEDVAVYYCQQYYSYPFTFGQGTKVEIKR
Experimental: (§1) FIG. 23 reports the results of a competitive ELISA done to measure the specificity of 280.346.TSY to human IL-22RA. Microtiter plates were coated with human IL-22RA-ECD (i.e. IL-22RA-Extra Cellular Domain). Biotinylated 280-346-TSY antibody was added to the plate in the presence of competitors: human interleukin 22 receptor alpha (hIL-22RA), human IL-22 binding protein (hIL-22BP), murine IL-22 receptor alpha (mIL-22RA), human IL-10 receptor alpha (hIL-10R) and human IL-20 receptor alpha (hIL-20R).
(§2) Specificity and binding affinity of 280.346.TSY was determined using a competitive ELISA. Microtiter plates were coated with human IL-22RA-ECD (i.e. IL-22RA-Extra Cellular Domain). Biotinylated 280-346-TSY antibody was added to the plate in the presence of competitors: human interleukin 22 receptor alpha (hIL-22RA), human IL-22 binding protein (hIL-22BP), mouse IL-22 receptor alpha (mIL-22RA), human IL-10 receptor alpha (hIL-10R) and human IL-20 receptor alpha (hIL-20R).

[2] = target: T3, 280.346.TSY (humanized anti-human …); assay: competitive ELISA: soluble competitor against coated human IL-22RA-ECD for biotinylated 280-346-TSY; soluble murine IL-22RA as competitor
Experimental: as §1, §2

[3] = target: T1, human IL-22RA on cells (HepG2 hepatoma …); assay: cell-based or functional assay
[4] = target: T2, murine IL-22RA on cells (HEPA1-6 …); assay: cell-based or functional assay
[5] = target: B1; assay: Biacore, NiNTA-purified Fab

Binder: B1
IC50 [1]: 18.2 pM

Binder: B2
IC50 [2]: 149 pM

Binder: B3
IC50, STAT3 phosphorylation assay in human HepG2 hepatoma cells stimulated with recombinant human IL-22 [3]: 258 pM
IC50, proliferation assay in BaF3 cells transfected with human IL-22RA and IL-10RB, cultured with recombinant human IL-22 [3]: 340 pM
fold potency against the mouse parental antibody 280.46.3.4, STAT3 phosphorylation assay in HepG2 cells [3]: 1.4 fold
fold potency against the mouse parental antibody 280.46.3.4, proliferation of human IL-22 receptor transfected BaF3 cells [3]: 1.7 fold
IC50, proliferation assay in BaF3 cells transfected with murine IL-22RA and IL-10RB, cultured with recombinant murine IL-22 [4]: 693 pM
fold potency against the mouse parental antibody 280.46.3.4, proliferation of murine IL-22 receptor transfected BaF3 cells [4]: 2.1 fold

Binder: B4
fold reduction of affinity against parental unmutated D32 (280.VH3-66-4) [5]: ~500 fold

Binder: B5
IC50, STAT3 phosphorylation assay in human HepG2 hepatoma cells [3]: 132 pM
fold potency against the mouse parental antibody 280.46.3.4, STAT3 phosphorylation assay in HepG2 cells [3]: ~3 fold

Binder: B6
IC50, STAT3 phosphorylation assay in human HepG2 hepatoma cells stimulated with recombinant human IL-22 [3]: 183 pM
IC50, proliferation of human IL-22 receptor (IL-22RA and IL-10RB) transfected BaF3 cells [3]: 334 pM
fold potency against the mouse parental antibody 280.46.3.4, STAT3 phosphorylation assay in HepG2 cells [3]: 1.8 fold
fold potency against the mouse parental antibody 280.46.3.4, proliferation of human IL-22 receptor transfected BaF3 cells [3]: 1.75 fold
IC50, proliferation of murine IL-22 receptor (IL-22RA and IL-10RB) transfected BaF3 cells [4]: 687 pM
fold potency against the mouse parental antibody 280.46.3.4, proliferation of murine IL-22 receptor transfected BaF3 cells [4]: 2.1 fold

Binder: B7
fold decrease of the off rate against parental unmutated D32 (280.VH3-66-4) [5]: ~5 fold
fold increase of the on rate against parental unmutated D32 (280.VH3-66-4) [5]: ~2 fold

Binder: B8
IC50, STAT3 phosphorylation assay in human HepG2 hepatoma cells stimulated with recombinant human IL-22 [3]: 333 pM and 370 pM and 266 pM
IC50, STAT3 phosphorylation assay in normal human keratinocytes stimulated with recombinant human IL-22 [3]: 542 pM
IC50, proliferation assay in BaF3 cells transfected with human IL-22RA and IL-10RB, cultured with recombinant human IL-22 [3]: 545 pM and 587 pM
IC50, proliferation assay in BaF3 cells transfected with murine IL-22RA and IL-10RB, cultured with recombinant murine IL-22 [4]: 849 pM and 1470 pM

— patent US20120230990A1 (MERCK SERONO, published 2012)
